From patent US20250215072A1 (published 2025)

Columns and labels:
[1] = target: hGARP-proTGFβ1 presented on cells (human, UniProt P01137 30-390; Q14392 20-662); assay: cell-based or functional assay
[2] = target: hLTBP1-proTGFβ1 as produced in the cell-based activation assay (human, UniProt P01137 30-390; Q14766 347-1721); assay: cell-based or functional assay
[3] = target: hLRRC33-proTGFβ1 presented on cells (human, UniProt P01137 30-390; Q86YC3 19-692); assay: cell-based or functional assay
[4] = target: hLTBP3-proTGFβ1 as produced in the cell-based activation assay (human, UniProt P01137 30-390; Q9NS15 44-1303); assay: cell-based or functional assay
[5] = target: T1, human GARP-proTGFβ1 complex (human, UniProt P01137 30-390; Q14392 20-627); assay: BLI (Octet)
T1 construct: also called hGARP-proTGFβ1; hGARP
Experimental: (§1) The affinity of anti-TGFβ1 antibodies was measured by Octet@ assay on human proTGFβ1 cells, while activity was measured by CAGA12 reporter cells testing human proTGFβ1 inhibition.

[6] = target: T2, human LRRC33-proTGFβ1 complex (human, UniProt P01137 30-390; Q86YC3 19-650); assay: BLI (Octet)
T2 construct: also called hLRRC33-proTGFβ1; hLRRC33
Experimental: as §1

[7] = target: T1, human GARP-proTGFβ1 complex; assay: MSD-SET, hIgG4
Experimental: (§2) MSD-SET assays were performed to measure affinities of the antibodies at equilibrium. Briefly, each test antibody was diluted 3-5 fold and samples were mixed with biotinylated antigen in a 48-well dish. The SET samples were equilibrated for 20-24 hours at room temperature. Meanwhile, a capture plate was coated with IgG (20 nM) and incubated overnight at 4° C. or 30 minutes at room temperature, followed by a blocking step with 5% BSA. After the capture plate was washed three times, SET samples were added and incubated for 150 seconds. The plate was washed once to remove unbound complexes. 250 ng/ml SA-Sulfotag was added then washed 3 times. 2× Read Buffer was added, and signals from the labeled bound complexes were read with the use of QuickPlex™ SQ 120 instrument.

[8] = target: T2, human LRRC33-proTGFβ1 complex; assay: MSD-SET, hIgG4
Experimental: as §2

T2 sequence (P01137 30-390 limits assumed, chain 1 of 2): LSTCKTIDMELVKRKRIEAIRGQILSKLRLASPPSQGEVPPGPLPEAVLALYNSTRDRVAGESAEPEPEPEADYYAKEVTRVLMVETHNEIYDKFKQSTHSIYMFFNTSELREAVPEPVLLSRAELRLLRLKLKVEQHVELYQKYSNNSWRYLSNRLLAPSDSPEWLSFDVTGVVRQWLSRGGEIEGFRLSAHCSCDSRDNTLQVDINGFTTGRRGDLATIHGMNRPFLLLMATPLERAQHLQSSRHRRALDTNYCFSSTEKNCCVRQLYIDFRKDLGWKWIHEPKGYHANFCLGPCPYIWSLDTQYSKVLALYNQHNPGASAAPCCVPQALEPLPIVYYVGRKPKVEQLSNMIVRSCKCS
T2 sequence (Q86YC3 other isoform, or with tags, fused parts or gaps limits assumed, chain 2 of 2): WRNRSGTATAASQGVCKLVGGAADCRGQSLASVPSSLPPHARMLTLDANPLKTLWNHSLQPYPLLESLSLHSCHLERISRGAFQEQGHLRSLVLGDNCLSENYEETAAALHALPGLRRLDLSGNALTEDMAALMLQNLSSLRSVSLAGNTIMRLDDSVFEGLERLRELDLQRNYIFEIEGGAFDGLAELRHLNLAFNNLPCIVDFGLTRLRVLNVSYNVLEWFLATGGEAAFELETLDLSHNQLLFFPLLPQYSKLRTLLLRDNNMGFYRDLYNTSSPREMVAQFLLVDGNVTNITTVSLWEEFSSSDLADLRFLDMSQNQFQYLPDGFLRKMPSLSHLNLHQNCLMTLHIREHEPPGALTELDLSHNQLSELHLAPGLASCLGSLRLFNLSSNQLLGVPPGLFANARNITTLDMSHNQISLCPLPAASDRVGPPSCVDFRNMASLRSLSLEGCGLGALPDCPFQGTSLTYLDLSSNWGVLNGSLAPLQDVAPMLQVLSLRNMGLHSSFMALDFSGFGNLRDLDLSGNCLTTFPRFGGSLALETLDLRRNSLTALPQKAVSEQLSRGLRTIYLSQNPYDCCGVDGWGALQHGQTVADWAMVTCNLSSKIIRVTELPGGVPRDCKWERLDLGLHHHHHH
T1 sequence (P01137 30-390, chain 1 of 2): as the sequence (P01137 30-390 limits assumed, chain 1 of 2) above
T1 sequence (Q14392 20-627, chain 2 of 2): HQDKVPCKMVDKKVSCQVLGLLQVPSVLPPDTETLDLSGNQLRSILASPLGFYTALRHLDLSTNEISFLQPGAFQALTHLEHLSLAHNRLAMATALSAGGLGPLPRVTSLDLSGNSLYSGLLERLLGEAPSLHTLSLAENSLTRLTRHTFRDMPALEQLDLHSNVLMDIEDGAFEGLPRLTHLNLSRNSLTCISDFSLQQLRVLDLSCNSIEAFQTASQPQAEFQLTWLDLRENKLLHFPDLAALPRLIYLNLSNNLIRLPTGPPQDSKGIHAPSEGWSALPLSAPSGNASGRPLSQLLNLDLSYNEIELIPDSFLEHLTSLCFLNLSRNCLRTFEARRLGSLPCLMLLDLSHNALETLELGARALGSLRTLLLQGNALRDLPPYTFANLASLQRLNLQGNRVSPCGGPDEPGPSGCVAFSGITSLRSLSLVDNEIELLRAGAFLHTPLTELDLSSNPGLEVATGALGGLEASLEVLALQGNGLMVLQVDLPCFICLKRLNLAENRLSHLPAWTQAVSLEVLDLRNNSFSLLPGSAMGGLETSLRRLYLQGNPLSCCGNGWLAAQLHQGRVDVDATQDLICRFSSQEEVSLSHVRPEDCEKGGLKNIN
Chain of hLTBP3-proTGFβ1 as produced in the cell-based activation assay (P01137 30-390 limits assumed, chain 1 of 2): as the sequence (P01137 30-390 limits assumed, chain 1 of 2) above
Chain of hLTBP3-proTGFβ1 as produced in the cell-based activation assay (Q9NS15 44-1303 limits assumed, chain 2 of 2): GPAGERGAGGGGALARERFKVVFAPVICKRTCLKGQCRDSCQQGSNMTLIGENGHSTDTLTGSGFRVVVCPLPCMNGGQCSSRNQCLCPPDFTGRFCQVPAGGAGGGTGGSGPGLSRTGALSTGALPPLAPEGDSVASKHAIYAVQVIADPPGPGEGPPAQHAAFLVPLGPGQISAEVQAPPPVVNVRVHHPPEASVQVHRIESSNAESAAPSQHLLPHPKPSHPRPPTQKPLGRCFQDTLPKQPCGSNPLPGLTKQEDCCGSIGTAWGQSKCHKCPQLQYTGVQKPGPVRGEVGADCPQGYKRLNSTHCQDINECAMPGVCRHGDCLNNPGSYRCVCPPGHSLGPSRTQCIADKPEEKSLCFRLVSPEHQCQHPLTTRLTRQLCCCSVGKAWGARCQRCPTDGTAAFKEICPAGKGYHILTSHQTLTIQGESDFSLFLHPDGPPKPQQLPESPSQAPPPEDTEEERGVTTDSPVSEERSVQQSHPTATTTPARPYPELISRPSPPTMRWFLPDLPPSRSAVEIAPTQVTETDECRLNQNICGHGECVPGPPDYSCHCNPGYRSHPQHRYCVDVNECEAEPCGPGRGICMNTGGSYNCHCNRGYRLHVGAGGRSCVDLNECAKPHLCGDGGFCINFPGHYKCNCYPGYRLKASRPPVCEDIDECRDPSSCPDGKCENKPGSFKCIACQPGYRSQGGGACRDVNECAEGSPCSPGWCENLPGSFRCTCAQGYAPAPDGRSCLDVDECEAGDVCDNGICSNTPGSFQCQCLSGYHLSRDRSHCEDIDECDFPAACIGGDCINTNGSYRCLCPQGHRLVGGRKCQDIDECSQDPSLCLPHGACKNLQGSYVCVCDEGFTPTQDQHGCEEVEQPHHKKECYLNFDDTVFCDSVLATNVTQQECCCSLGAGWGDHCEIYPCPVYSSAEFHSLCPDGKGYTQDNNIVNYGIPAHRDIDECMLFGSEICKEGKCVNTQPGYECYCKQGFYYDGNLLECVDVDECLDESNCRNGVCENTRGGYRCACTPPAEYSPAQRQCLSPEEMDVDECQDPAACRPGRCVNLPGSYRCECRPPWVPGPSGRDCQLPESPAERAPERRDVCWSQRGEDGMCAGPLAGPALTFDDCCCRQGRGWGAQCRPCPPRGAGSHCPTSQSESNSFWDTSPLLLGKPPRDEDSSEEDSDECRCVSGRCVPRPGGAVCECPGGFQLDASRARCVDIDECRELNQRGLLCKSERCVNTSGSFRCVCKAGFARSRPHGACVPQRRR
Chain of hGARP-proTGFβ1 presented on cells (P01137 30-390 limits assumed, chain 1 of 2): as the sequence (P01137 30-390 limits assumed, chain 1 of 2) above
Chain of hGARP-proTGFβ1 presented on cells (Q14392 20-662 limits assumed, chain 2 of 2): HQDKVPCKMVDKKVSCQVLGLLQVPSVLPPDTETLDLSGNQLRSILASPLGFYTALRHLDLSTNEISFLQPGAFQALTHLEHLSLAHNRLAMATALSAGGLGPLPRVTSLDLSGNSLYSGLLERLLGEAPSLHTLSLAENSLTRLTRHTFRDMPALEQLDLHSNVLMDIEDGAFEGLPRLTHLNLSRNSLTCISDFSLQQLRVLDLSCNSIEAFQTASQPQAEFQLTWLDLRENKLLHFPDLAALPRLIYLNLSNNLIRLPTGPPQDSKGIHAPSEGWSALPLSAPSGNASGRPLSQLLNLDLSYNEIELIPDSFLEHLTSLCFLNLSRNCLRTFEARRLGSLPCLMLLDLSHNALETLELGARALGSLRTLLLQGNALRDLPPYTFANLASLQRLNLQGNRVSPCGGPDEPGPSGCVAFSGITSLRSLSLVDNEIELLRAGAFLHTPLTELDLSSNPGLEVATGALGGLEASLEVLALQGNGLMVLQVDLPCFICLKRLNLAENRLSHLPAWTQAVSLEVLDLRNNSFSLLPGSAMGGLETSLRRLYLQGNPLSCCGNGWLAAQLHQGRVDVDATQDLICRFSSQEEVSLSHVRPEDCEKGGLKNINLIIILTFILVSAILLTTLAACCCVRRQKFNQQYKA

| IC50, reporter cell assay [1] [nM] | IC50, reporter cell assay [2] [nM] | IC50, reporter cell assay [3] [nM] | IC50, reporter cell assay [4] [nM] | Kd [5] [nM] | Kd [6] [nM] | Kd [7] [nM] | Kd [8] [nM] | Binder |
| --- | --- | --- | --- | --- | --- | --- | --- | --- |
| 0.262 | 0.713 | 0.341 | 0.716 | 0.625 | 0.36 | 0.014 | 0.13 | Ab26 (antibody, IgG4, V domains shown) VH: EVQLVESGGGLVQPGGSLRLSCAASGFTFSSFSMDWVRQAPGKGLEWVSYISPDASTIYYADSVKGRFTISRDNAKNTLYLQMNSLRAEDTAVYYCARGVLDYGDMLDPWGQGTLVTVSS VL: DIQMTQSPSSLSASVGDRVTITCQASQDITNYLNWYQQKPGKAPKLLIYDASNLETGVPSRFSGSGSGTDFTFTISSLQPEDIATYYCQQADNHPPWTFGGGTKVEIK |
| 0.264 | 0.471 | 0.458 | 0.803 | 0.307 | 0.302 | 0.0055 | 0.043 | Ab29 (antibody, IgG4, V domains shown) VH: EVQLVESGGGLVQPGRSLRLSCAASGFTFSSFAMNWVRQAPGKGLEWVSYISPDASTIYYAGSVKGRFTISRDNAKNSLYLQMNSLRAEDTAVYYCVRAVLDYGDMLDPWGQGTLVTVSS VL: DIQMTQSPSSLSASVGDRVTITCQASQDITNYLNWYQQKPGKAPKLLIYDASNLETGVPSRFSGSGSGTDFTFTISSLQPEDIATYYCQQADNHPPWTFGGGTKVEIK |
| 0.198 | 1.56 | 0.738 | 1.11 | 0.265 | 0.339 | 0.0078 | 0.046 | Ab33 (antibody, IgG4, V domains shown) VH: EVQLVESGGGLVQPGGSLRLSCAASGFTFSSFSMNWVRQAPGKGLEWVSYISPSADTIYYADSVKGRFTISRDNAKNTLYLQMNSLRAEDTAVYYCAHGVLDYGDMLDPWGQGTLVTVSS VL: DIQMTQSPSSLSASVGDRVTITCQASQDITNYLNWYQQKPGKAPKLLIYDASNLETGVPSRFSGSGSGTDFTFTISSLQPEDIATYYCQQADNHPPWTFGGGTKVEIK |

Further lines, the binder ahead of its results:

| Binder | IC50, reporter cell assay [1] [nM] | IC50, reporter cell assay [2] [nM] | IC50, reporter cell assay [3] [nM] | IC50, reporter cell assay [4] [nM] | Kd [5] [nM] | Kd [6] [nM] | Kd [7] [nM] | Kd [8] [nM] |
| --- | --- | --- | --- | --- | --- | --- | --- | --- |
| Ab11 (antibody, IgG4, V domains shown) VH: EVQLLESGGGLVQPGGSLRLSCAASGFTFRNYAMSWVRQAPGKGLEWVSSISGSGGATYYADSVKGRFTISRDNSKNTLYLQMNSLRAEDTAVYYCARVSSGHWDFDYWGQGTLVTVSS VL: DIQLTQSPSSLSASVGDRVTITCRASQSISSYLNWYQQKPGKAPKLLIYAASNLQSGVPSRFSGSGSGTDFTLTISSLQPEDFATYYCQQTYTVPLTFGGGTKVEIK | 0.79 | 2.95 | 1.27 | 1.56 | 0.842 | 0.555 | 3 | 6.3 |
| Ab19 (antibody, IgG4, V domains shown) VH: QVQLVESGGGVVQPGRSLRLSCAASGFTFSSFAMTWVRQAPGKGLEWVSAISGSGAATYFADSVKGRFTISRDNSKNTLYLQMNSLRAEDTAVYYCARVSSGHWDFDEWGQGTLVTVSS VL: DIQLTQSPSSLSASVGDRVTITCRASQSISSYLNWYQQKPGKAPKLLIYAASNLQSGVPSRFSGSGSGTDFTLTISSLQPEDFATYYCQQTYTVPLTFGGGTKVEIK | 1.34 | 1.66 | 0.401 | 1.6 | 11.2 | 0.692 | 3.8 | 5.7 |
| Ab12 (antibody, IgG4, V domains shown) VH: QVQLVESGGGVVQPGRSLRLSCAASGFTFSDYAMVWVRQAPGKGLEWVSAISGSGFTTYYADSVKGRFTISRDNSKNTLYLQMNSLRAEDTAVYYCARVSSGHWDFDYWGQGTLVTVSS VL: DIQLTQSPSSLSASVGDRVTITCRASQSISSYLNWYQQKPGKAPKLLIYAASNLQSGVPSRFSGSGSGTDFTLTISSLQPEDFATYYCQQTYTVPLTFGGGTKVEIK | 1.08 | 3.79 | 2.43 | 1.55 | 7.01 | 0.775 | 1.7 | 3.2 |
